This is an account of results in article doi:10.1101/2024.02.03.578754 (bioRxiv, 2024).

Where no end group is shown, it is not given here.

The assay deals with Arabidopsis thaliana O-acetylserine sulfhydrylase (OASS) (Arabidopsis thaliana, UniProt P47998 3-322). Briefly: fluorescence polarisation.
Chain of Arabidopsis thaliana O-acetylserine sulfhydrylase (OASS) (P47998 3-322): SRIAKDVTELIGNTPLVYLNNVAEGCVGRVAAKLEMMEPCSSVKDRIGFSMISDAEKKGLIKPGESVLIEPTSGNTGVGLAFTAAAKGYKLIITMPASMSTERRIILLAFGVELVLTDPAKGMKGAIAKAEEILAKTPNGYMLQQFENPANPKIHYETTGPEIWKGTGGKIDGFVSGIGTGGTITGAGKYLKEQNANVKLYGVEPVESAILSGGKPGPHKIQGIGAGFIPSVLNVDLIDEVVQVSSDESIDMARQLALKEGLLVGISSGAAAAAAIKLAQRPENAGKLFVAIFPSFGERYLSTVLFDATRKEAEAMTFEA

For the molecule YLTEWSDYVI (also: FITC conjugate, position not given here) [FITC-labeled SAT-derived peptide YLTEWSDYVI (FITC-SATp)], the binding result is reported as “binds”.
